Laboratory results from PMC9341007 (Structure (London, England : 1993), 2022).

Target: equine ACE2 peptidase domain (horse (Equus caballus), UniProt A0A9L0TPT7 19-615)
Assay: SPR

B1: hCoV-NL63 spike receptor-binding domain (domain or fragment)
chain: QHTDINFTATASFGGSCYVCKPHQVNISLNGNTSVCVRTSHFSIRYIYNRVKSGSPGDSSWHIYLKSGTCPFSFSKLNNFQKFKTICFSTVEVPGSCNFPLEATWHYTSYTIVGALYVTWSEGNSITGVPYPVSGI
Kd: 106 nM
